In the experiment the target is B7-H3 ECD (extracellular domain of B7-H3) (UniProt Q5ZPR3). The experiment is described as follows: adsorption ELISA on B7-H3 ECD, serial dilutions of purified mAb, estimate of binding affinity.

B1: TRL4542 (antibody, V domains shown)
VH: QVQLVESGGDLVQPGESLRLSCAASGFIFSDAWMVWVRQAPGKGLEWVGRIKTNGDGGTTDLTEPVKGRFTISRDDSKNMVYLQMNNLRTEDTAIYYCTTAPGFWGQGTLVTVSS
VL: DIEMTQSPDSLAVSLGERATINCKSSHNLLYKSNNKNYLAWSQQKPGQPPRLLIYWASTRDSGVPDRFSGSGSGTDFTLTISSLQAEDVAVYYCHQYYGTKWTFGQGTRVEIKR
As for B1, the Affinity was 5 nM.

The record behind these values is patent US20180186880A1.
